Assays:
PLCβ3 ΔXY2 = target: T1, PLCβ3 ΔXY2 (Homo sapiens, UniProt Q01970 10-1234, ΔXY2 (residues 471–584)); test: cell-based or functional assay
T1 sequence (looked up): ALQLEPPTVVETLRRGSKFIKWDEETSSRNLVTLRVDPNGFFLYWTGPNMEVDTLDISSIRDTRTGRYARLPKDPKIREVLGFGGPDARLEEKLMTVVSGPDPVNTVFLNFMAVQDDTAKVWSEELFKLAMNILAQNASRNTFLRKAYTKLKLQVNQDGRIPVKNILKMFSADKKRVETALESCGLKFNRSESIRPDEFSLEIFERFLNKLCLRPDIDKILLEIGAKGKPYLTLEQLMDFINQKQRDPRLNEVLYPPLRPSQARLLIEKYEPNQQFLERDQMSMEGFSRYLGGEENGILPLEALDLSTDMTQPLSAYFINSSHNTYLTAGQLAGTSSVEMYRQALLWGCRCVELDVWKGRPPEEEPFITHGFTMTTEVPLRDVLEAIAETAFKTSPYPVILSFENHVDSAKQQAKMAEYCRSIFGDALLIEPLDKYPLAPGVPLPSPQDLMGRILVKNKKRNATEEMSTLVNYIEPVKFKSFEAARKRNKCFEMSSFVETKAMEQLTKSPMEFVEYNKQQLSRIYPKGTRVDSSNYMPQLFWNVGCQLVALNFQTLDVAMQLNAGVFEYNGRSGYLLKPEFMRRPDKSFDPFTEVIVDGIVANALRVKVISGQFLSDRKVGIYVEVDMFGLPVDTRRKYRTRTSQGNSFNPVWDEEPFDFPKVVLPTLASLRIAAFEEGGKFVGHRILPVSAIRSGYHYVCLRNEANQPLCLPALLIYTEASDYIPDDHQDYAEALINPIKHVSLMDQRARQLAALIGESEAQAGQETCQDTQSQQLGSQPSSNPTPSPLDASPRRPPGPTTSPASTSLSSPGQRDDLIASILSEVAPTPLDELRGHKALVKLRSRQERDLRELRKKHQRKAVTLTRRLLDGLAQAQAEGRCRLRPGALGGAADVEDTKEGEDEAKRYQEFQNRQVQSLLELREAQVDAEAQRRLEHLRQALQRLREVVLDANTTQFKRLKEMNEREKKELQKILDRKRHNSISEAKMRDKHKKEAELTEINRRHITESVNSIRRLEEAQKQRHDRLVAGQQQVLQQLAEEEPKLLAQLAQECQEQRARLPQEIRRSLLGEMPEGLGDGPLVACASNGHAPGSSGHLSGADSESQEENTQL

[1] = target: T2, Homo sapiens PLCβ3 (residues 10–1234) (Homo sapiens, UniProt Q01970 10-1234); test: cell-based or functional assay
T2 sequence (looked up): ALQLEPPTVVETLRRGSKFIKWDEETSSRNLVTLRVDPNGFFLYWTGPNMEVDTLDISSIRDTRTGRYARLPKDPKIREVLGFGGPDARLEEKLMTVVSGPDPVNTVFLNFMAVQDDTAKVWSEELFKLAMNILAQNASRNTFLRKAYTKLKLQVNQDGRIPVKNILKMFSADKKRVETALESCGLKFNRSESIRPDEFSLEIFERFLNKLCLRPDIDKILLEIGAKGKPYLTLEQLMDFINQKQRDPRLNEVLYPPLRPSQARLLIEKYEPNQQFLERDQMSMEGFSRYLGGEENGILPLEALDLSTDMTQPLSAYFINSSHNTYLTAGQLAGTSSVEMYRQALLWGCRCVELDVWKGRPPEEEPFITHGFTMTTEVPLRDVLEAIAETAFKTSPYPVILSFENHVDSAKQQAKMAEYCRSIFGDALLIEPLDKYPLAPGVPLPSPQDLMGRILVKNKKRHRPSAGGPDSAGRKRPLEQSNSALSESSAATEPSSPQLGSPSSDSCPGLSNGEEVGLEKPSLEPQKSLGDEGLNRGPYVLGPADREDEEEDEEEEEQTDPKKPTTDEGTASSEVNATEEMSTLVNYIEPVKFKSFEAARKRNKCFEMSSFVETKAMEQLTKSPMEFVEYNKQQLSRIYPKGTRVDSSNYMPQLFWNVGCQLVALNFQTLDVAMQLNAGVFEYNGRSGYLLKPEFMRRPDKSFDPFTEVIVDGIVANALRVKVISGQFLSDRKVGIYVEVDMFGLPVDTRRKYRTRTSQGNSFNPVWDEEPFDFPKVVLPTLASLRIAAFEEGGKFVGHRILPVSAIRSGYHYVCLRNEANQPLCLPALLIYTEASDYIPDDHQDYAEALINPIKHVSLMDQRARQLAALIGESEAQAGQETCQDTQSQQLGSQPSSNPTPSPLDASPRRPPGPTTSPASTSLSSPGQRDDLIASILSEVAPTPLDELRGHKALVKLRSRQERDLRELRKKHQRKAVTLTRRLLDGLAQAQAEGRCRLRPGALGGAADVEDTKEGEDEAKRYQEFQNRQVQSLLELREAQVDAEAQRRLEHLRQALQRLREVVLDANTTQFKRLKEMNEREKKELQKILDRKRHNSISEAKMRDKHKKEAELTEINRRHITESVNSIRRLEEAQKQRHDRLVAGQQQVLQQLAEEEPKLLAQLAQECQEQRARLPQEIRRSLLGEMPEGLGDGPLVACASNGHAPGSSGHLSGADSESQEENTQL

B1: Activated Gαq (Gαq·GDP-ALF4^−) (natural protein, murine, UniProt P21279 7-359, looked up)
chain: MACCLSEEAKEARRINDEIERQLRRDKRDARRELKLLLLGTGESGKSTFIKQMRIIHGSGYSDEDKRGFTKLVYQNIFTAMQAMIRAMDTLKIPYKYEHNKAHAQLVREVDVEKVSAFENPYVDAIKSLWNDPGIQECYDRRREYQLSDSTKYYLNDLDRVADPSYLPTQQDVLRVRVPTTGIIEYPFDLQSVIFRMVDVGGQRSERRKWIHCFENVTSIMFLVALSEYDQVLVESDNENRMEESKALFRTIITYPWFQNSSVILFLNKKDLLEEKIMYSHLVDYFPEYDGPQRDAQAAREFILKMFVDLNPDSDKIIYSHFTCATDTENIRFVFAAVKDTILQLNLKEYNLV
x-fold maximum activity over basal (complex against the PLCβ3 variant alone) (PLCβ3 ΔXY2): 2 x-fold | x-fold maximum activity over basal (complex against the PLCβ3 variant alone) [1]: 8 x-fold

Reference: PMC7885793 (Biochemistry, 2019)
